Molecular target: T1, HLA-A*02:01 (Homo sapiens, UniProt P04439, D140Y/D185E/D98H/E176V/E277Q/G131W/G231S/I119V/I121R/I166T/I218V/L300P/L318F/N151K/N90K/P208A/P217A/Q86G/Q94H/R138H/R169H/T345S)
T1 construct: made in house
Assay: MHC binding assay: UV-ligand exchange with β2m ELISA (peptide exchange yield)
Settings: binding to HLA-A*02:01 evaluated by peptide exchange yield (UV-ligand exchange, β2m ELISA)
Description: Candidate peptides for T cell based therapies according to the present invention were further tested for their MHC binding capacity (affinity). The individual peptide-MHC complexes were produced by UV-ligand exchange, where a UV-sensitive peptide is cleaved upon UV-irradiation, and exchanged with the peptide of interest as analyzed. Only peptide candidates that can effectively bind and stabilize the peptide-receptive MHC molecules prevent dissociation of the MHC complexes. To determine the yield of the exchange reaction, an ELISA was performed based on the detection of the light chain (β2m) of stabilized MHC complexes. The assay was performed as generally described in Rodenko et al. (Rodenko et al., 2006).
96 well MAXISorp plates (NUNC) were coated over night with 2 ug/ml streptavidin in PBS at room temperature, washed 4× and blocked for 1 h at 37° C. in 2% BSA containing blocking buffer. Refolded HLA-A*02:01/MLA-001 monomers served as standards, covering the range of 15-500 ng/ml. Peptide-MHC monomers of the UV-exchange reaction were diluted 100 fold in blocking buffer. Samples were incubated for 1 h at 37° C., washed four times, incubated with 2 ug/ml HRP conjugated anti-β2m for 1 h at 37° C., washed again and detected with TMB solution that is stopped with […]. Absorption was measured at 450 nm. Candidate peptides that show a high exchange yield (preferably higher than 50%, most preferred higher than 75%) are generally preferred for a generation and production of antibodies or fragments thereof, and/or T cell receptors or fragments thereof, as they show sufficient avidity to the MHC molecules and prevent dissociation of the MHC complexes.

Substance	Peptide exchange
243 (GLAEFQENV; listed as Homo sapiens) [compound 243]	++ (≧20% = ++)
1 (KLQEKIQEL; listed as Homo sapiens) [compound 1]	++++ (≧75% = ++++)
119 (SLIEESEEL; listed as Homo sapiens) [compound 119]	++ (≧20% = ++)
227 (SEMEELPSV; listed as Homo sapiens) [compound 227]	+ (≧10% = +)
208 (HLNNDRNPL; listed as Homo sapiens) [compound 208]	++ (≧20% = ++)
256 (FLNDIFERI; listed as Homo sapiens) [compound 256]	+++ (≧50 = +++)
39 (YLEDGFAYV; listed as Homo sapiens) [compound 39]	+++ (≧50 = +++)
219 (GVVPTIQKV; listed as Homo sapiens) [compound 219]	++ (≧20% = ++)
79 (TVLEEIGNRV; listed as Homo sapiens) [compound 79]	++ (≧20% = ++)
75 (ALLDGALQL; listed as Homo sapiens) [compound 75]	+++ (≧50 = +++)
83 (GLLENSPHL; listed as Homo sapiens) [compound 83]	++ (≧20% = ++)
142 (LLDAAHASI; listed as Homo sapiens) [compound 142]	++ (≧20% = ++)
130 (QLYGSAITL; listed as Homo sapiens) [compound 130]	+++ (≧50 = +++)
252 (SLMEKNQSL; listed as Homo sapiens) [compound 252]	++ (≧20% = ++)
159 (QLGPVPVTI; listed as Homo sapiens) [compound 159]	+++ (≧50 = +++)
19 (KVFELDLVTL; listed as Homo sapiens) [compound 19]	++ (≧20% = ++)
95 (KLIDEDEPLFL; listed as Homo sapiens) [compound 95]	+++ (≧50 = +++)
237 (ALLEQTGDMSL; listed as Homo sapiens) [compound 237]	+++ (≧50 = +++)
60 (YLFSQGLQGL; listed as Homo sapiens) [compound 60]	+++ (≧50 = +++)
129 (KMASKVTQV; listed as Homo sapiens) [compound 129]	++ (≧20% = ++)
98 (FVQEKIPEL; listed as Homo sapiens) [compound 98]	+++ (≧50 = +++)
22 (LMYPYIYHV; listed as Homo sapiens) [compound 22]	+++ (≧50 = +++)
47 (GLNGFNVLL; listed as Homo sapiens) [compound 47]	+++ (≧50 = +++)
40 (KIWEELSVLEV; listed as Homo sapiens) [compound 40]	+++ (≧50 = +++)
23 (ALLSPLSLA; listed as Homo sapiens) [compound 23]	+++ (≧50 = +++)

Substance	Peptide exchange
88 (LLLPLELSLA; listed as Homo sapiens) [compound 88]	+++ (≧50 = +++)
112 (ILAQDVAQL; listed as Homo sapiens) [compound 112]	+++ (≧50 = +++)
220 (ALSELERVL; listed as Homo sapiens) [compound 220]	+++ (≧50 = +++)
280 (HLWGHALFL; listed as Homo sapiens) [compound 280]	+++ (≧50 = +++)
71 (HMSGKLTNV; listed as Homo sapiens) [compound 71]	++ (≧20% = ++)
113 (FLFLKEVKV; listed as Homo sapiens) [compound 113]	++ (≧20% = ++)
99 (TLFGIQLTEA; listed as Homo sapiens) [compound 99]	+++ (≧50 = +++)
247 (NLLIDDKGTIKL; listed as Homo sapiens) [compound 247]	++ (≧20% = ++)
33 (TLDRNSLYV; listed as Homo sapiens) [compound 33]	++ (≧20% = ++)
250 (LMQDSRLYL; listed as Homo sapiens) [compound 250]	+++ (≧50 = +++)
109 (ILGSFELQL; listed as Homo sapiens) [compound 109]	+++ (≧50 = +++)
122 (SIIDTELKV; listed as Homo sapiens) [compound 122]	+++ (≧50 = +++)
128 (SILTNISEV; listed as Homo sapiens) [compound 128]	++ (≧20% = ++)
61 (ALYPKEITL; listed as Homo sapiens) [compound 61]	+++ (≧50 = +++)
63 (KLLPMVIQL; listed as Homo sapiens) [compound 63]	+++ (≧50 = +++)
164 (MLIIRVPSV; listed as Homo sapiens) [compound 164]	+++ (≧50 = +++)
96 (ALDTTRHEL; listed as Homo sapiens) [compound 96]	++ (≧20% = ++)
21 (YLMDDFSSL; listed as Homo sapiens) [compound 21]	+++ (≧50 = +++)
55 (HLFDKIIKI; listed as Homo sapiens) [compound 55]	+++ (≧50 = +++)
38 (VLQQESNFL; listed as Homo sapiens) [compound 38]	++ (≧20% = ++)
229 (YLYELEHAL; listed as Homo sapiens) [compound 229]	++ (≧20% = ++)
110 (QIQGQVSEV; listed as Homo sapiens) [compound 110]	++ (≧20% = ++)
279 (VLMDEGAVLTL; listed as Homo sapiens) [compound 279]	++ (≧20% = ++)
214 (ALFETLIQL; listed as Homo sapiens) [compound 214]	+++ (≧50 = +++)
51 (LDSEALLTL; listed as Homo sapiens) [compound 51]	++ (≧20% = ++)

Substance	Peptide exchange
230 (KLLNMIFSI; listed as Homo sapiens) [compound 230]	+++ (≧50 = +++)
224 (LLFDWSGTGRADA; listed as Homo sapiens) [compound 224]	+++ (≧50 = +++)
133 (FLDGRPLTL; listed as Homo sapiens) [compound 133]	++ (≧20% = ++)
147 (GLLSALENV; listed as Homo sapiens) [compound 147]	+++ (≧50 = +++)
105 (AMLASQTEA; listed as Homo sapiens) [compound 105]	++ (≧20% = ++)
150 (VLLDMVHSL; listed as Homo sapiens) [compound 150]	+++ (≧50 = +++)
180 (RLYEEEIRI; listed as Homo sapiens) [compound 180]	+++ (≧50 = +++)
215 (QIADIVTSV; listed as Homo sapiens) [compound 215]	++ (≧20% = ++)
107 (RVLPGQAVTGV; listed as Homo sapiens) [compound 107]	++ (≧20% = ++)
41 (IVTEIISEI; listed as Homo sapiens) [compound 41]	+++ (≧50 = +++)
16 (SLADLSLLL; listed as Homo sapiens) [compound 16]	+++ (≧50 = +++)
30 (IITEVITRL; listed as Homo sapiens) [compound 30]	+++ (≧50 = +++)
54 (YLVPGLVAA; listed as Homo sapiens) [compound 54]	+++ (≧50 = +++)
274 (TLYNPERTITV; listed as Homo sapiens) [compound 274]	+++ (≧50 = +++)
278 (VLEDKVLSV; listed as Homo sapiens) [compound 278]	+++ (≧50 = +++)
93 (RLYGYFHDA; listed as Homo sapiens) [compound 93]	++ (≧20% = ++)
173 (RLIDIYKNV; listed as Homo sapiens) [compound 173]	+++ (≧50 = +++)
154 (AIIKEIQTV; listed as Homo sapiens) [compound 154]	++ (≧20% = ++)
100 (ALQSFEFRV; listed as Homo sapiens) [compound 100]	+++ (≧50 = +++)
187 (SILKEDPFL; listed as Homo sapiens) [compound 187]	++ (≧20% = ++)
114 (LLFPSDVQTL; listed as Homo sapiens) [compound 114]	++ (≧20% = ++)
140 (FLDSQITTV; listed as Homo sapiens) [compound 140]	+++ (≧50 = +++)
91 (LLPSIFLMV; listed as Homo sapiens) [compound 91]	++ (≧20% = ++)

Reference: patent US20160279215A1, “NOVEL PEPTIDES AND COMBINATION OF PEPTIDES FOR USE IN IMMUNOTHERAPY AGAINST VARIOUS TUMORS” (immatics biotechnologies GmbH, priority 2015, published 2016)
